Assays:
Assay in all cases: cell-based or functional assay
[1] = target: HIV-1 Env of isolate ZM249 (clade C pseudovirus) (HIV-1)
[2] = target: HIV-1 Env of isolate ZM233 (clade C pseudovirus) (HIV-1)
[3] = target: HIV-1 Env of isolate TR0.11 (clade B pseudovirus) (HIV-1)
[4] = target: HIV-1 NL43 envelope glycoprotein (Env) on pseudovirus (HIV-1 isolate NL43 (clade B))
[5] = target: HIV-1 MGRM-A-010 envelope glycoprotein (Env) on pseudovirus (HIV-1 isolate MGRM-A-010 (clade A))
[6] = target: HIV-1 MGRM-C-027 envelope glycoprotein (Env) on pseudovirus (HIV-1 isolate MGRM-C-027 (clade C))
[7] = target: HIV-1 Env of isolate 92BR020 (pseudovirus) (HIV-1)
[8] = target: HIV-1 92UG005 Env (HIV-1)
[9] = target: HIV-1 JRFL Env (HIV-1)
[10] = target: HIV-1 MGRM-D-018 Env (HIV-1)
[11] = target: HIV-1 94UG103 Env (HIV-1)
[12] = target: HIV-1 CMU02 Env (HIV-1)
[13] = target: HIV-1 APV6 Env (HIV-1)
[14] = target: HIV-1 NL43 Env (HIV-1)
[15] = target: HIV-1 MGRM-C-027 Env (pseudovirus) (HIV-1 isolate MGRM-C-027 (clade C))
[16] = target: HIV-1 MGRM-D-001 Env (pseudovirus) (HIV-1 isolate MGRM-D-001 (clade D))
[17] = target: HIV-1 93UG077 Env (pseudovirus) (HIV-1 isolate 93UG077 (clade A))
[18] = target: HIV-1 NL43 Env (pseudovirus) (HIV-1 isolate NL43 (clade B))
[19] = target: HIV-1 92RW020 Env (pseudovirus) (HIV-1 isolate 92RW020 (clade A))
[20] = target: HIV-1 JRFL Env (pseudovirus) (HIV-1 isolate JRFL (clade B))
[21] = target: HIV-1 APV6 Env (pseudovirus) (HIV-1 isolate APV6 (clade B))
[22] = target: HIV-1 Env of isolate MGRM-F1-008 (clade F), on pseudovirus (HIV-1)
[23] = target: HIV-1 Env of isolate MGRM-Chronic-B-003 (HIV-1)
[24] = target: HIV-1 Env of isolate MGRM-Chronic-B-020 (HIV-1)
[25] = target: HIV-1 Env of isolate APV13 (HIV-1)
[26] = target: HIV-1 Env of pseudovirus MGRM-A-008 (subtype A) (HIV-1)
[27] = target: HIV-1 Env of pseudovirus MGRM-A-001 (subtype A) (HIV-1)
[28] = target: HIV-1 Env of isolate MGRM-Chronic-B-011 (HIV-1)
[29] = target: HIV-1 Env of isolate MG RM-D-029 (HIV-1)
[30] = target: HIV-1 Env of pseudovirus MGRM-AG-002 (subtype AG) (HIV-1)
[31] = target: HIV-1 Env of isolate MGRM-F1-012 (HIV-1)
[32] = target: HIV-1 Env of isolate MGRM-F1-006 (HIV-1)
[33] = target: HIV-1 Env of pseudovirus MGRM-AE-007 (subtype AE) (HIV-1)
[34] = target: HIV-1 Env of pseudovirus MGRM-AG-011 (subtype AG) (HIV-1)
[35] = target: HIV-1 Env of pseudovirus MGRM-AG-001 (subtype AG) (HIV-1)

1443_C16 (PG16) (TCN-116) (antibody), sequence (VH): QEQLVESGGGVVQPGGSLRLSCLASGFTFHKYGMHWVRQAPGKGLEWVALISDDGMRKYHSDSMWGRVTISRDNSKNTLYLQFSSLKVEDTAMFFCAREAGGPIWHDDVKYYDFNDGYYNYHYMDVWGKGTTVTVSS
1443_C16 (PG16) (TCN-116) (antibody), sequence (VL): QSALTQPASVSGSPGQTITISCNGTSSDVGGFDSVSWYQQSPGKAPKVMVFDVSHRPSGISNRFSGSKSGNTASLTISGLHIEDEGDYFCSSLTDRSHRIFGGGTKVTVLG

Substance: 1443_C16 (PG16) (TCN-116) (antibody)
- IC50 (neutralization, TZM-bl pseudovirus assay) [1]: < 0.01 µg/mL
- IC50 (neutralization, TZM-bl pseudovirus assay) [2]: < 0.01 µg/mL
- IC50 (neutralization, TZM-bl pseudovirus assay) [3]: 3.61 µg/mL

Substance: 1496_C09 (PG9) (TCN-109) (antibody)
- neutralization IC50 [4]: 0.687 µg/mL
- neutralization IC50 [5]: 0.0375 µg/mL
- neutralization IC80 [5]: 0.121 µg/mL
- neutralization IC90 [5]: 0.242 µg/mL
- neutralization IC95 [5]: 0.456 µg/mL
- neutralization IC50 [6]: 2.45 µg/mL

Substance: 4858_P08 (PGT-123) (antibody)
- Primary Neutralization Index (B cell culture supernatant) [7]: 2.8

Substance: 4877_D15 (PGT-122) (antibody)
- Neutralization by PGT-122, IC50 [8]: > 10 µg/mL
- Neutralization by PGT-122, IC80 [8]: > 10 µg/mL
- Neutralization by PGT-122, IC90 [8]: > 10 µg/mL
- Neutralization by PGT-122, IC95 [8]: > 10 µg/mL
- Neutralization by PGT-122, IC50 [9]: 0.0471 µg/mL
- Neutralization by PGT-122, IC80 [9]: 0.166 µg/mL
- Neutralization by PGT-122, IC90 [9]: 0.342 µg/mL
- Neutralization by PGT-122, IC95 [9]: 0.659 µg/mL
- Neutralization by PGT-122, IC50 [10]: 0.0115 µg/mL
- Neutralization by PGT-122, IC80 [10]: 0.035 µg/mL
- Neutralization by PGT-122, IC90 [10]: 0.0674 µg/mL
- Neutralization by PGT-122, IC95 [10]: 0.125 µg/mL
- Neutralization by PGT-122, IC50 [11]: 1.46 µg/mL
- Neutralization by PGT-122, IC80 [11]: 6.58 µg/mL
- Neutralization by PGT-122, IC90 [11]: > 10 µg/mL
- Neutralization by PGT-122, IC95 [11]: > 10 µg/mL
- Neutralization by PGT-122, IC50 [12]: > 10 µg/mL
- Neutralization by PGT-122, IC80 [12]: > 10 µg/mL
- Neutralization by PGT-122, IC90 [12]: > 10 µg/mL
- Neutralization by PGT-122, IC95 [12]: > 10 µg/mL
- Neutralization by PGT-122, IC50 [13]: 0.0851 µg/mL
- Neutralization by PGT-122, IC80 [13]: 0.351 µg/mL
- Neutralization by PGT-122, IC90 [13]: 0.779 µg/mL
- Neutralization by PGT-122, IC95 [13]: 1.55 µg/mL
- Neutralization by PGT-122, IC50 [14]: > 10 µg/mL
- Neutralization by PGT-122, IC80 [14]: > 10 µg/mL
- Neutralization by PGT-122, IC90 [14]: > 10 µg/mL
- Neutralization by PGT-122, IC95 [14]: > 10 µg/mL

Substance: 5123_A06 (PGT-125) (antibody)
- Neutralization by PGT-125, IC50 [15]: > 10 µg/mL
- Neutralization by PGT-125, IC80 [15]: > 10 µg/mL
- Neutralization by PGT-125, IC90 [15]: > 10 µg/mL
- Neutralization by PGT-125, IC95 [15]: > 10 µg/mL
- Neutralization by PGT-125, IC50 [16]: 2.31 µg/mL
- Neutralization by PGT-125, IC80 [16]: > 10 µg/mL
- Neutralization by PGT-125, IC90 [16]: > 10 µg/mL
- Neutralization by PGT-125, IC95 [16]: > 10 µg/mL
- Neutralization by PGT-125, IC50 [17]: 0.0262 µg/mL
- Neutralization by PGT-125, IC80 [17]: 0.0926 µg/mL
- Neutralization by PGT-125, IC90 [17]: 0.206 µg/mL
- Neutralization by PGT-125, IC95 [17]: 0.487 µg/mL
- Neutralization by PGT-125, IC50 [18]: > 10 µg/mL
- Neutralization by PGT-125, IC80 [18]: > 10 µg/mL
- Neutralization by PGT-125, IC90 [18]: > 10 µg/mL
- Neutralization by PGT-125, IC95 [18]: > 10 µg/mL
- Neutralization by PGT-125, IC50 [19]: 0.0028 µg/mL
- Neutralization by PGT-125, IC80 [19]: 0.011 µg/mL
- Neutralization by PGT-125, IC90 [19]: 0.0248 µg/mL
- Neutralization by PGT-125, IC95 [19]: 0.0526 µg/mL
- Neutralization by PGT-125, IC50 [20]: 0.0156 µg/mL
- Neutralization by PGT-125, IC80 [20]: 0.0462 µg/mL
- Neutralization by PGT-125, IC90 [20]: 0.0873 µg/mL
- Neutralization by PGT-125, IC95 [20]: 0.157 µg/mL
- Neutralization by PGT-125, IC50 [21]: 0.0359 µg/mL
- Neutralization by PGT-125, IC80 [21]: 0.133 µg/mL
- Neutralization by PGT-125, IC90 [21]: 0.288 µg/mL
- Neutralization by PGT-125, IC95 [21]: 0.597 µg/mL

Substance: PGV04 (antibody)
- IC50 (µg/mL), pseudovirus neutralization [22]: 1.03 µg/mL
- IC50 (µg/mL), pseudovirus neutralization [23]: 0.258 µg/mL
- IC50 (µg/mL), pseudovirus neutralization [24]: 1.26 µg/mL
- IC50 (µg/mL), pseudovirus neutralization [25]: 1.23 µg/mL
- IC50, pseudovirus neutralization [26]: 0.555 µg/mL
- IC50, pseudovirus neutralization [27]: 6.78 µg/mL
- IC50 (µg/mL), pseudovirus neutralization [28]: 0.497 µg/mL

Substance: VRC01 (antibody)
- IC50 [29]: 3.22 µg/mL
- IC50, pseudovirus neutralization [30]: 0.95 µg/mL
- IC50 [31]: 0.488 µg/mL
- IC50 [32]: 2.86 µg/mL
- IC50, pseudovirus neutralization [33]: 0.835 µg/mL
- IC50, pseudovirus neutralization [34]: 0.084 µg/mL
- IC50, pseudovirus neutralization [35]: 0.228 µg/mL

Reference: patent publication US20250320281A1
